The target in one assay is T1, hFcµ-tFcµ-chi4 (human | Oncorhynchus mykiss (rainbow …)).
T1 chain: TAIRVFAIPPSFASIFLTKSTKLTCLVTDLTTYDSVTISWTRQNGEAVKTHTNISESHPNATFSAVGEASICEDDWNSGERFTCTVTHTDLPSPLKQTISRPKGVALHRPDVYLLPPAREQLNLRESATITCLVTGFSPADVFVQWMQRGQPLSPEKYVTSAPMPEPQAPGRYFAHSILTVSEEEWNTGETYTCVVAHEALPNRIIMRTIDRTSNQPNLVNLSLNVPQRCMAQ
The assay can be described thus: SEC-MALS; Superose 6 Increase 10/300, TBS buffer, 0.5 ml/min, 25 °C; 100 uL of protein at approximately 2 g/L; pIg peaks isolated from mIg by SEC before the analysis. The note with it: both partners purified. A general note: Size exclusion chromatography separates by hydrodynamic size, large species first.

Assay [1] concerns the target full-length hFcµ expressed without JC (human, UniProt P01871 106-433). The assay is described as above. The following applies: both partners purified.

Sequence of full-length hFcµ expressed without JC (P01871 106-433): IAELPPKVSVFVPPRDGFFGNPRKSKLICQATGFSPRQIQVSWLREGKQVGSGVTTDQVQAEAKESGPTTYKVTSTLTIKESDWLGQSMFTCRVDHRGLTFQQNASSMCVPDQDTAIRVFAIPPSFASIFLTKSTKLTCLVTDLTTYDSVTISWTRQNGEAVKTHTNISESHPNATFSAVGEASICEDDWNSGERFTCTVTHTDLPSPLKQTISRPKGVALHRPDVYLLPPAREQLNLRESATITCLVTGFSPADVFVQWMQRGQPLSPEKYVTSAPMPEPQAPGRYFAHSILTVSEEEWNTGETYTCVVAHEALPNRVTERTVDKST

B1: hFcµ-tFcµ-chi4 (other)
chain: TAIRVFAIPPSFASIFLTKSTKLTCLVTDLTTYDSVTISWTRQNGEAVKTHTNISESHPNATFSAVGEASICEDDWNSGERFTCTVTHTDLPSPLKQTISRPKGVALHRPDVYLLPPAREQLNLRESATITCLVTGFSPADVFVQWMQRGQPLSPEKYVTSAPMPEPQAPGRYFAHSILTVSEEEWNTGETYTCVVAHEALPNRIIMRTIDRTSNQPNLVNLSLNVPQRCMAQ
modifications: N-glycosylated; probable tetramer (P1), also a monomer fraction (P2) / N-glycosylated; probable tetramer (P1), also a monomer fraction (P2)
A word on the stoichiometry N: it is a count of units in the complex or per binding partner. As to B1, the “stoichiometry N” value with hFcµ-tFcµ-chi4 was ~4.

B2: full-length hFcµ expressed without JC (domain or fragment)
chain: TAIRVFAIPPSFASIFLTKSTKLTCLVTDLTTYDSVTISWTRQNGEAVKTHTNISESHPNATFSAVGEASICEDDWNSGERFTCTVTHTDLPSPLKQTISRPKGVALHRPDVYLLPPAREQLNLRESATITCLVTGFSPADVFVQWMQRGQPLSPEKYVTSAPMPEPQAPGRYFAHSILTVSEEEWNTGETYTCVVAHEALPNRVTERTVDKSTGKPTLYNVSLVMSDTAGTCY
modifications: N-glycosylated, disulfide-linked hexamer of Fc dimers without J chain. Secretory form with tailpiece. N-terminus taken at TAIRVF (T343 in the paper's numbering), as in the printed chimeras; entity …
Regarding B2, in assay [1], the “stoichiometry N” value turned out to be 6.

(Values after paper PMC10663602, “The structure of the teleost Immunoglobulin M core provides insights on polymeric antibody evolution, assembly, and function” (Nature Communications, 2023).)
